Measurements reported in patent publication US20240050583A1 (HARBOUR BIOMED SHANGHAI, published 2024).
One block for each binder: values may come before it.

Molecular target: T1, human BCMA (human, UniProt Q02223 1-184)
T1 construct: whole, on cells; also called hBCMA; tumor necrosis factor receptor superfamily member 17
T1 sequence (looked up): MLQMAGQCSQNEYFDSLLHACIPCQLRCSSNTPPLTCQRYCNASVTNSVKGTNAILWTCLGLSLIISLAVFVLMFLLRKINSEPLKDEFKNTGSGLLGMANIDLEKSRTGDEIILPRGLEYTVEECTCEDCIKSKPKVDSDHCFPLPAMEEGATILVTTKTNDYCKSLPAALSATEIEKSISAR
Assay: flow cytometry (FACS) on NCI-H929 cells

binding result: binds
B15: PR006317 (antibody, V domains shown)
VH: EVQLVETGGGLIQPGGSLRLSCAASGFTVSDSYMTWVRQAPGKGLEWVSVIFSGGRTYYSDSVKGRFTISRDNAKNTLYLQMNSLRAEDTALYYCARRNYDDTRGTDVFDIWGQGTMVTVSS
notes: also called PR004433 variant molecule; Hinge9_7

binding result: binds
B16: PR006038 (antibody, V domains shown)
VH: B15 VH
notes: also called PR004433 variant molecule; Hinge5_12

binding result: binds
B17: PR006040 (antibody, V domains shown)
VH: B15 VH
notes: also called PR004433 variant molecule; Hinge6_4

binding result: binds
B18: PR006037 (antibody, V domains shown)
VH: B15 VH
notes: also called PR004433 variant molecule; Hinge5_2

binding result: binds
B19: PR006320 (antibody, V domains shown)
VH: B15 VH
notes: also called PR004433 variant molecule; Hinge10_5

binding result: binds
B20: PR006034 (antibody, V domains shown)
VH: B15 VH
notes: also called PR004433 variant molecule; Hinge4_1

binding result: binds
B21: PR006041 (antibody, V domains shown)
VH: B15 VH
notes: also called PR004433 variant molecule; Hinge6_15

binding result: binds
B22: PR006315 (antibody, V domains shown)
VH: B15 VH
notes: also called PR004433 variant molecule; Hinge8_20

binding result: binds
B23: PR006033 (antibody, V domains shown)
VH: B15 VH
notes: also called PR004433 variant molecule; Hinge3_18

Continued, binder first:

B1: HCAb PR004433 (antibody, human IgG1, V domains shown)
VH: B15 VH
notes: also called PR001046_R2_4G10; anti-BCMA HCAb antibody PR004433
binding result: binds

B2: PR006314 (antibody, V domains shown)
VH: B15 VH
notes: also called PR004433 variant molecule; Hinge8_18
binding result: binds

B3: PR006031 (antibody, V domains shown)
VH: B15 VH
notes: also called PR004433 variant molecule; Hinge3_5
binding result: binds

B4: PR006036 (antibody, V domains shown)
VH: B15 VH
notes: also called PR004433 variant molecule; Hinge4_15
binding result: binds

B5: PR006319 (antibody, V domains shown)
VH: B15 VH
notes: also called PR004433 variant molecule; Hinge10_3
binding result: binds

B6: PR006310 (antibody, V domains shown)
VH: B15 VH
notes: also called PR004433 variant molecule; Hinge7_2
binding result: binds

B7: PR006042 (antibody, V domains shown)
VH: B15 VH
notes: also called PR004433 variant molecule; Hinge6_18
binding result: binds

B8: PR006316 (antibody, V domains shown)
VH: B15 VH
notes: also called PR004433 variant molecule; Hinge9_5
binding result: binds

B9: PR006312 (antibody, V domains shown)
VH: B15 VH
notes: also called PR004433 variant molecule; Hinge7_19
binding result: binds

B10: PR006035 (antibody, V domains shown)
VH: B15 VH
notes: also called PR004433 variant molecule; Hinge4_6
binding result: binds

B11: PR006313 (antibody, V domains shown)
VH: B15 VH
notes: also called PR004433 variant molecule; Hinge8_8
binding result: binds

B12: PR006032 (antibody, V domains shown)
VH: B15 VH
notes: also called PR004433 variant molecule; Hinge3_6
binding result: binds

B13: PR006039 (antibody, V domains shown)
VH: B15 VH
notes: also called PR004433 variant molecule; Hinge5_13
binding result: binds

B14: PR006318 (antibody, V domains shown)
VH: B15 VH
notes: also called PR004433 variant molecule; Hinge9_14
binding result: binds
